Among the data in paper doi:10.1101/2025.09.29.679187 (bioRxiv, 2025) are Kd values, retold here.

The term Kd denotes the constant that tells how readily two partners part at equilibrium. A higher Kd goes with a looser complex.

In this experiment the target is 6xHis-PDE6D (UniProt O43924 1-150). Description: fluorescence polarisation.
Sequence of 6xHis-PDE6D (O43924 whole entry): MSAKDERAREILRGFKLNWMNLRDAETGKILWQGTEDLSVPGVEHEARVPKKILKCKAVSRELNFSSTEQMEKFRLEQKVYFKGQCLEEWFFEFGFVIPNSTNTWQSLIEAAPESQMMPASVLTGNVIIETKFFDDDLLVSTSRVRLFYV

B1: Wild-type K-Ras peptide (FAM-KKKKKKSKTKC-Far-OMe) (peptide)
peptide: KKKKKKSKTKC
modifications: FAM on the N-terminus; C-terminal cysteine farnesylated (Far) and carboxymethylated (OMe)
With B1, the dissociation constant (Kd) amounted to 200 nM.
